The subject of test [1] is p-ERK. In words: Immunoblotting of phosphorylated ERK. Type of test: cell-based. The conditions noted are these: PKG inhibition. As for the experimental part: Immunoblotting. […] Samples were kept on ice during sonication to prevent overheating. Samples were then centrifuged at 15,000 rpm for 20 min, and the supernatants were collected and subjected to protein quantification. The PAGE (polyacrylamide gel electrophoresis) on 6-10% SDS gels was performed followed by semi-dry transfer to PVDF membranes using a Bio-Rad Trans-Blot Turbo Transfer System and detection using antibodies against t-ERK (1:1,000), p-ERK (1:1,000), NOS (1:200), and GAPDH (1:2,000) (Cell Signaling Technology). Blots were scanned with both calorimetry to image molecular markers and chemiluminescence to capture the protein signal intensity using a Bio-Rad imager.

Test [2] deals with Dopamine-receptor type-5 (DR-5) on primary cilia of cultured cells. In words: fluorescence intensity in non-permeabilized live cells.
For test [3] the target is unchanged. In words: live single-cell-single-cilium fluorescence intensity per area.
For test [4] the target is unchanged. In words: live single-cell fluorescence imaging of perfused fluorescent nanoparticles on the cilium.

As for `Nc1nc2c(nc(Sc3ccc(Cl)cc3)n2C2OC3COP(O)(=S)OC3C2O)c(=O)[nH]1` (centres unmarked) [Rp-8pCPT-cGMP], the “flow-induced effect of NPs on ERK phosphorylation” value in test [1] is “reduced the flow-induced effect of NPs on ERK phosphorylation”.

Turning to “CT-Fe2O3-NPs (antibody- and fenoldopam-loaded Sunbright-40-OA-Fe2O3-NPs)”, in test [2], the ratio of cilia-to-cell body specificity came out at 158. In test [3], this molecule displayed a proportion of specific binding cilium:cell:background (relative to background = 1) of 17000.

Consider “CT-PLGA-NPs (cilia-targeted PLGA nanoparticles carrying DR-5-AF594 antibody and fenoldopam)”, for which the binding kinetics to cilia in test [4] came out at 0.26 min⁻¹.

In turn, “CT-DAu-NPs (cilia-targeted dopaminergized gold nanoparticles carrying DR-5-AF594 antibody and fenoldopam)” yielded a binding kinetics to cilia in test [4] of 0.21 min⁻¹.
